From patent publication US20240166747A1

B1: 42Y073-1A01-85 (antibody, V domains shown)
VH: QVQLVQSGAEVKKPGASVKVSCKASGYTFTSYPMHWVRQAPGQGLEWMGIINPSGGFTSYAQKFQGRVTMTRDTSTSTVYMELSSLRSEDTAVYYCARETAYYTTKGNWFDPWGQGTLVTVSA
VL: DIQMTQSPSSLSASVGDRVTITCRASQSISSYLNWYQQKPGKAPKLLIYAASSLQSGVPSRFSGSGSGTDFTLTISSLQPEDFATYYCQQSLYPPRTFGGGTKVEIK
B2: 42Y073-1A01-97 (antibody, V domains shown)
VH: QVQLVQSGAEVKKPGASVKVSCKASGYTFTRAAMHWVRQAPGQGLEWMGIINPAGGYTSYAQKFQGRVTMTRDTSTSTVYMELSSLRSEDTAVYYCARETAYYTTKGNWFDPWGQGTLVTVSS
VL: DIQMTQSPSSLSASVGDRVTITCRASQSISSYLNWYQQKPGKAPKLLIYAASSLQSGVPSRFSGSGSGTDFTLTISSLQPEDFATYYCQQSLYPPRTFGGGTKVEIK
B3: 42Y073-86F04-6 (antibody, V domains shown)
VH: QVQLVQSGAEVKKPGSSVKVSCKASGGTFSGHAISWVRQAPGQGLEWMGGIIPIFGRARYAQKFQGRVTITADESTSTAYMELSSLRSEDTAVYYCARLLGESGMDVWGQGTTVTVSS
VL: DIQMTQSPSSLSASVGDRVTITCRASQSISSYLNWYQQKPGKAPKLLIYAASSLQSGVPSRFSGSGSGTDFTLTISSLQPEDFATYYCQQPYFSPPTFGGGTKVEIK
B4: 42Y073-86F04-4 (antibody, V domains shown)
VH: QVQLVQSGAEVKKPGSSVKVSCKASGGTFESEAISWVRQAPGQGLEWMGGIIPIFGRARYAQKFQGRVTITADESTSTAYMELSSLRSEDTAVYYCARLLGESGMDVWGQGTTVTVSS
VL: DIQMTQSPSSLSASVGDRVTITCRASQSISSYLNWYQQKPGKAPKLLIYAASSLQSGVPSRFSGSGSGTDFTLTISSLQPEDFATYYCQQPYFSPPTFGGGTKVEIK
B5: 42Y073-1A01-103 (antibody, V domains shown)
VH: QVQLVQSGAEVKKPGASVKVSCKASGYTFTAYQMHWVRQAPGQGLEWMGIINPAGGWTSYAQKFQGRVTMTRDTSTSTVYMELSSLRSEDTAVYYCARETAYYTTKGNWFDPWGQGTLVTVSS
VL: DIQMTQSPSSLSASVGDRVTITCRASQSISSYLNWYQQKPGKAPKLLIYAASSLQSGVPSRFSGSGSGTDFTLTISSLQPEDFATYYCQQSLYPPRTFGGGTKVEIK
B6: 42Y073-86F04-3 (antibody, V domains shown)
VH: QVQLVQSGAEVKKPGSSVKVSCKASGGTFSYNAISWVRQAPGQGLEWMGGIIPIMGTARYAQKFQGRVTITADESTSTAYMELSSLRSEDTAVYYCARLLGESGMDVWGQGTTVTVSS
VL: DIQMTQSPSSLSASVGDRVTITCRASQSISSYLNWYQQKPGKAPKLLIYAASSLQSGVPSRFSGSGSGTDFTLTISSLQPEDFATYYCQQPYFSPPTFGGGTKVEIK
B7: 42Y073-1A01-126 (antibody, V domains shown)
VH: QVQLVQSGAEVKKPGASVKVSCKASGYTFTRYNMHWVRQAPGQGLEWMGWINPAGGSTSYAQKFQGRVTMTRDTSTSTVYMELSSLRSEDTAVYYCARETAYYTTKGNWFDPWGQGTLVTVSA
VL: DIQMTQSPSSLSASVGDRVTITCRASQSISSYLNWYQQKPGKAPKLLIYAASSLQSGVPSRFSGSGSGTDFTLTISSLQPEDFATYYCQQSLYPPRTFGGGTKVEIK
B8: 42Y073-86F04-5 (antibody, V domains shown)
VH: QVQLVQSGAEVKKPGSSVKVSCKASGGTFSSHAISWVRQAPGQGLEWMGGIIPIFGRGKYAQKFQGRVTITADESTSTAYMELSSLRSEDTAVYYCARLLGESGMDVWGQGTTVTVSS
VL: DIQMTQSPSSLSASVGDRVTITCRASQSISSYLNWYQQKPGKAPKLLIYAASSLQSGVPSRFSGSGSGTDFTLTISSLQPEDFATYYCQQPYFSPPTFGGGTKVEIK
B9: 42Y073-1A01-191 (antibody, V domains shown)
VH: QVQLVQSGAEVKKPGASVKVSCKASGYTFTKYRMHWVRQAPGQGLEWMGIINPQGGSTSYAQKFQGRVTMTRDTSTSTVYMELSSLRSEDTAVYYCARETAYYTTKGNWFDPWGQGTLVTVSA
VL: DIQMTQSPSSLSASVGDRVTITCRASQSISSYLNWYQQKPGKAPKLLIYAASSLQSGVPSRFSGSGSGTDFTLTISSLQPEDFATYYCQQSLYPPRTFGGGTKVEIK
B10: 42Y073-1A01-100 (antibody, V domains shown)
VH: QVQLVQSGAEVKKPGASVKVSCKASGYTFTTYRMHWVRQAPGQGLEWMGIINPSGGLTQYAQKFQGRVTMTRDTSTSTVYMELSSLRSEDTAVYYCARETAYYTTKGNWFDPWGQGTLVTVSS
VL: DIQMTQSPSSLSASVGDRVTITCRASQSISSYLNWYQQKPGKAPKLLIYAASSLQSGVPSRFSGSGSGTDFTLTISSLQPEDFATYYCQQSLYPPRTFGGGTKVEIK
B11: 42Y073-86F04-18 (antibody, V domains shown)
VH: QVQLVQSGAEVKKPGSSVKVSCKASGGTFSSRAISWVRQAPGQGLEWMGGIIPIMGTARYAQKFQGRVTITADESTSTAYMELSSLRSEDTAVYYCARLLGESGMDVWGQGTTVTVSS
VL: DIQMTQSPSSLSASVGDRVTITCRASQSISSYLNWYQQKPGKAPKLLIYAASSLQSGVPSRFSGSGSGTDFTLTISSLQPEDFATYYCQQPYFSPPTFGGGTKVEIK
B12: 42Y073-86F04-23 (antibody, V domains shown)
VH: QVQLVQSGAEVKKPGSSVKVSCKASGGTFSGYPISWVRQAPGQGLEWMGGIIPIMGTARYAQKFQGRVTITADESTSTAYMELSSLRSEDTAVYYCARLLGESGMDVWGQGTTVTVSS
VL: DIQMTQSPSSLSASVGDRVTITCRASQSISSYLNWYQQKPGKAPKLLIYAASSLQSGVPSRFSGSGSGTDFTLTISSLQPEDFATYYCQQPYFSPPTFGGGTKVEIK
B13: 42Y073-86F08-3 (antibody, V domains shown)
VH: QVQLVQSGAEVKKPGSSVKVSCKASGGTFVNYAISWVRQAPGQGLEWMGGIIPALGTANYAQKFQGRVTITADESTSTAYMELSSLRSEDTAVYYCARGAGYYGDKDPMDVWGQGTTVTVSS
VL: DIQLTQSPSSLSASVGDRVTITCRASQSISSYLNWYQQKPGKAPKLLIYAASSLQSGVPSRFSGSGSGTDFTLTISSLQPEDFATYYCQQVLHTITFGGGTKVEIK
B14: 42Y073-86F08-17 (antibody, V domains shown)
VH: QVQLVQSGAEVKKPGSSVKVSCKASGGTFREYAISWVRQAPGQGLEWMGGIIPVFGTANYAQKFQGRVTITADESTSTAYMELSSLRSEDTAVYYCARGAGYYGDKDPMDVWGQGTTVTVSS
VL: DIQLTQSPSSLSASVGDRVTITCRASQSISSYLNWYQQKPGKAPKLLIYAASSLQSGVPSRFSGSGSGTDFTLTISSLQPEDFATYYCQQVLHTITFGGGTKVEIK
B15: 42Y073-86F08-4 (antibody, V domains shown)
VH: QVQLVQSGAEVKKPGSSVKVSCKASGGTFSEYAIHWVRQAPGQGLEWMGNIIPIFGTAGYAQKFQGRVTITADESTSTAYMELSSLRSEDTAVYYCARGAGYYGDKDPMDVWGQGTTVTVSS
VL: DIQLTQSPSSLSASVGDRVTITCRASQSISSYLNWYQQKPGKAPKLLIYAASSLQSGVPSRFSGSGSGTDFTLTISSLQPEDFATYYCQQVLHTITFGGGTKVEIK
B16: 42Y073-86F08-8 (antibody, V domains shown)
VH: QVQLVQSGAEVKKPGSSVKVSCKASGGTFWLYAISWVRQAPGQGLEWMGGIIPQLGTANYAQKFQGRVTITADESTSTAYMELSSLRSEDTAVYYCARGAGYYGDKDPMDVWGQGTTVTVSS
VL: DIQLTQSPSSLSASVGDRVTITCRASQSISSYLNWYQQKPGKAPKLLIYAASSLQSGVPSRFSGSGSGTDFTLTISSLQPEDFATYYCQQVLHTITFGGGTKVEIK
B17: 42Y073-86F08-16 (antibody, V domains shown)
VH: QVQLVQSGAEVKKPGSSVKVSCKASGGTFNEYAISWVRQAPGQGLEWMGGIVPVFGTAKYAQKFQGRVTITADESTSTAYMELSSLRSEDTAVYYCARGAGYYGDKDPMDVWGQGTTVTVSS
VL: DIQLTQSPSSLSASVGDRVTITCRASQSISSYLNWYQQKPGKAPKLLIYAASSLQSGVPSRFSGSGSGTDFTLTISSLQPEDFATYYCQQVLHTITFGGGTKVEIK
B18: 42Y073-86F08-47 (antibody, V domains shown)
VH: QVQLVQSGAEVKKPGSSVKVSCKASGGTFSQYAIHWVRQAPGQGLEWMGVIIPIFGKANYAQKFQGRVTITADESTSTAYMELSSLRSEDTAVYYCARGAGYYGDKDPMDVWGQGTTVTVSS
VL: DIQLTQSPSSLSASVGDRVTITCRASQSISSYLNWYQQKPGKAPKLLIYAASSLQSGVPSRFSGSGSGTDFTLTISSLQPEDFATYYCQQVLHTITFGGGTKVEIK
B19: 42Y073-86F08-22 (antibody, V domains shown)
VH: QVQLVQSGAEVKKPGASVKVSCKASGYTFDSYAMHWVRQAPGQGLEWMGGIIPIFGTAWYAQKFQGRVTITADESTSTAYMELSSLRSEDTAVYYCARGAGYYGDKDPMDVWGQGTTVTVSS
VL: DIQLTQSPSSLSASVGDRVTITCRASQSISSYLNWYQQKPGKAPKLLIYAASSLQSGVPSRFSGSGSGTDFTLTISSLQPEDFATYYCQQVLHTITFGGGTKVEIK

Assays:
[1] = target: human CD96v2 expressed on cells (human) (UniProt P40200); experiment: flow cytometry, CHO cells expressing human CD96v2
[2] = target: human CD96v2 expressed on cells (human) (UniProt P40200); experiment: competition flow cytometry, inhibition of CD155-Fc-AF647 binding to CHO cells expressing human CD96v2
[3] = target: native human CD96 on primary human T cells and NK cells (human) (UniProt P40200); experiment: flow cytometry, primary human CD3+ T cells

Binder	EC50 [1]	IC50 [2]	EC50 [3]
B1	0.47 nM	0.03 nM	–
B2	0.77 nM	0.03 nM	–
B3	0.06 nM	0.25 nM	–
B4	0.04 nM	0.18 nM	–
B5	0.02 nM	0.03 nM	–
B6	0.04 nM	0.31 nM	–
B7	0.02 nM	0.1 nM	–
B8	–	0.38 nM	–
B9	0.01 nM	0.03 nM	–
B10	0.02 nM	0.06 nM	–
B11	0.07 nM	0.59 nM	–
B12	0.06 nM	0.76 nM	–
B13	0.04 nM	0.26 nM	–
B14	0.1 nM	0.52 nM	–
B15	0.04 nM	0.38 nM	–
B16	0.17 nM	0.93 nM	–
B17	0.03 nM	0.78 nM	–
B18	0.05 nM	0.17 nM	–
B19	0.03 nM	0.41 nM	0.1 nM
